Assay [1] addresses T1, human MARCO (R&D biosystems), recombinant, coated in the LDL competition assay (human, UniProt Q9UEW3 70-520, limits assumed).
T1 construct: Bought protein
T1 sequence (looked up): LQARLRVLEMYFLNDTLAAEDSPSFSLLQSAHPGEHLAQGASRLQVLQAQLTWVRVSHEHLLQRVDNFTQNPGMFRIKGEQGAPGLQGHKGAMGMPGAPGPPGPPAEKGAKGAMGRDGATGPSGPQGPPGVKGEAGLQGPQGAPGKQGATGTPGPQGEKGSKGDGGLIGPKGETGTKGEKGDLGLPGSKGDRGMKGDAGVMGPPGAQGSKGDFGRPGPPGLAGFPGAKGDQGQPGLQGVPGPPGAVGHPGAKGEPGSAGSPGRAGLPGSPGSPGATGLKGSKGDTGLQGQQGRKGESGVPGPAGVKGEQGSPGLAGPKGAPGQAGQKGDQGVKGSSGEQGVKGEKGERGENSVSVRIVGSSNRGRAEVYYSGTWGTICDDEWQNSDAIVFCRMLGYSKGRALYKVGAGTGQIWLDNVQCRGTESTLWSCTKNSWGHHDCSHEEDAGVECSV
Briefly: LDL competition on coated human MARCO (MSD), competitor biotinylated hLDL. As to the method: (§1) A high-binding, 96-well MSD plate was coated with 4 μg/ml mouse MARCO or 4 μg/ml human MARCO (R&D biosystems). After the plate was blocked with PBST and 5% BSA for an hour, titrated anti-mouse or anti-human MARCO antibodies were added to the plate and incubated for 30 minutes. Biotinylated hLDL (860 pM or 2 μg/ml) were added to the antibody, and the antibody/LDL mixture was incubated for an hour to allow the mixture to reach binding equilibrium. The plates were washed and bound biotinylated LDL was detected with Sulfo-tagged streptavidin that generates an electrocheminlumenscent signal when read buffer is added and electricity is applied to the electrodes in the MSD plate. IC50's were calculated using a 4-parameter curve fit in GraphPad Prism software.
The newly generated rat hybridoma anti-human MARCO antibodies were characterized as previously described. Neither antibody bound to MSR1. Binding kinetics were determined via Multi Cycle Kinetics analysis using the huMARCO antigen as previously described.

Assay [2] concerns the target T2, N-terminally polyhistidine tagged human MARCO ECD (147-520), recombinant (human, UniProt Q9UEW3 147-520).
T2 construct: also called PI-RG-3000; recombinant human MARCO; not shown: N-terminal polyhistidine tag
T2 sequence: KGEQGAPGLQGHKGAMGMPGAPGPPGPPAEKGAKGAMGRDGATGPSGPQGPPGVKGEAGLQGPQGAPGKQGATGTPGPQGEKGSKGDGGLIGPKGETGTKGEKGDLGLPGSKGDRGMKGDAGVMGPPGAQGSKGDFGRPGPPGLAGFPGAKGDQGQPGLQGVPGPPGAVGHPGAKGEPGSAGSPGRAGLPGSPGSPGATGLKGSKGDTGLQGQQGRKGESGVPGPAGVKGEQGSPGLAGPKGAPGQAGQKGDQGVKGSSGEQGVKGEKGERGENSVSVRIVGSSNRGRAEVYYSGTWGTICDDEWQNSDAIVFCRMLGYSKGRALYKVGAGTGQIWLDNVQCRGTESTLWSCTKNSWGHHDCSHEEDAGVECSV
Kind of assay: SPR, single cycle (sc).

For assay [3], the target named is T3, recombinant cynomolgus MARCO protein (cynomolgus, UniProt A0A2K5X0Z2 65-519).
T3 construct: Construct not described; also called cyno MARCO; cynoMARCO
T3 sequence: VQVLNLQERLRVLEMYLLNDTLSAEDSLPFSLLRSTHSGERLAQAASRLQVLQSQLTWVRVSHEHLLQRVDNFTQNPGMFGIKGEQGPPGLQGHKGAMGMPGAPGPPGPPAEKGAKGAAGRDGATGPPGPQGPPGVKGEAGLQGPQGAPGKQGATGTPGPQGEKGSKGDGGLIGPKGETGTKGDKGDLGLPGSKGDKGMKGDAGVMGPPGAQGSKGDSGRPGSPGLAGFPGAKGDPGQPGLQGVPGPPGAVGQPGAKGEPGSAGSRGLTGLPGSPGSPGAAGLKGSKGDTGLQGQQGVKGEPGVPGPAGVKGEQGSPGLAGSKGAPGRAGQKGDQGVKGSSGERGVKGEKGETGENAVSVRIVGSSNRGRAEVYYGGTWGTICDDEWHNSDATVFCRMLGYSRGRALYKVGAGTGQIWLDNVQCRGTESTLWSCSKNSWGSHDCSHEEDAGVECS
Kind of assay: SPR, single cycle (sc).

Assay [4] concerns the target T4, mouse MARCO (R&D biosystems), recombinant, coated in the LDL competition assay (mouse, UniProt Q60754 70-518, limits assumed).
T4 sequence (looked up): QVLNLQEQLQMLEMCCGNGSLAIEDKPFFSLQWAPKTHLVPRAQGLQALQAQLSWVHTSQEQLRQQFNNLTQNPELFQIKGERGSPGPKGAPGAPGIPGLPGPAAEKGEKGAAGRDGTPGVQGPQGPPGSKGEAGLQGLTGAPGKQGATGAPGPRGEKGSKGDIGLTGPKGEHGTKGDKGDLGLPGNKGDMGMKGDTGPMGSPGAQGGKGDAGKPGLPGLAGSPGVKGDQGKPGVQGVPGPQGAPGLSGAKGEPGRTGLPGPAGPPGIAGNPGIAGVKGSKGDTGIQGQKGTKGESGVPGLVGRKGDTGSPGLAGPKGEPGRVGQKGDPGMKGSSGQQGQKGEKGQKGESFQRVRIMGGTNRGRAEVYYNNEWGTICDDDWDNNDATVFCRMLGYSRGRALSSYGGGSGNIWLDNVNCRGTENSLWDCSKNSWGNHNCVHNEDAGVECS
Briefly: LDL competition on coated mouse MARCO (MSD), competitor biotinylated hLDL. The protocol:
as §1

B1: PI-HX-3061 (antibody, rat IgG2a)
heavy: EVQLVESGGGLVQPGSSLKLSCVASKFTFSNYGMNWIRQAPKKGLEWIALIYYNSNNKYYADSVKGRFTISRDNSKNTLYLEMNSLRSEDTAMYYCAKSLTGGSDYFDSWGQGVMVTVSSAETTAPSVYPLAPGTALKSNSMVTLGCLVKGYFPEPVTVTWNSGALSSGVHTFPAVLQSGLYTLTSSVTVPSSTWPSQTVTCNVAHPASSTKVDKKIVPRNCGGDCKPCICTGSEVSSVFIFPPKPKDVLTITLTPKVTCVVVDISQDDPEVHFSWFVDDVEVHTAQTRPPEEQFNSTFRSVSELPILHQDWLNGRTFRCKVTSAAFPSPIEKTISKPEGRTQVPHVYTMSPTKEEMTQNEVSITCMVKGFYPPDIYVEWQMNGQPQENYKNTPPTMDTDGSYFLYSKLNVKKEKWQQGNTFTCSVLHEGLHNHHTEKSLSHSP
light: DVQMTQSPSYLAASPGESVSISCKASKSIGTFLAWYQEKPEKTNKLLIYSGSTLQSGTPSRFSGSGSGTDFTLTIRNLEPEDFAVYYCQQHDEYPFTFGSGTKLEIKRADAAPTVSIFPPSTEQLATGGASVVCLMNNFYPRDISVKWKIDGTERRDGVLDSVTDQDSKDSTYSMSSTLSLTKADYESHNLYTCEVVHKTSSSPVVKSFNRNEC
notes: Parental rat hybridoma, rat IgG2a; cross reactive with human and mouse MARCO
Take B1: the EC50 in assay [1] is 8200 pM.

B2: PI-HX-3031 (antibody)
heavy: QVQLKESGPGLVQPSQTLSLTCTVSGFSLTSYHVSWVRQPPGKGLEWMGAIWTGGSIAYNSLLKSRLSISRDTSKSQVFLKMNSLQTEDTATYYCARDLSDYYSSYTSFDYWGQGVMVTVSTAETTAPSVYPLAPGTALKSNSMVTLGCLVKGYFPEPVTVTWNSGALSSGVHTFPAVLQSGLYTLTSSVTVPSSTWSSQAVTCNVAHPASSTKVDKKIVPRECNPCGCTGSEVSSVFIFPPKTKDVLTITLTPKVTCVVVDISQNDPEVRFSWFIDDVEVHTAQTHAPEKQSNSTLRSVSELPIVHRDWLNGKTFKCKVNSGAFPAPIEKSISKPEGTPRGPQVYTMAPPKEEMTQSQVSITCMVKGFYPPDIYTEWKMNGQPQENYKNTPPTMDTDGSYFLYSKLNVKKETWQQGNTFTCSVLHEGLHNHHTEKSLSHSP
light: DIQMTQSPASLSTSLGETVSIECLASEGISNDLAWYQQKSGKSPQLLIYAASRLQDGVPSRFSGSGSGTRYSLKISGMQPEDEADYFCQQSYKYPLTFGSGTKLEIKRADAAPTVSIFPPSTEQLATGGASVVCLMNNFYPRDISVKWKIDGTERRDGVLDSVTDQDSKDSTYSMSSTLSLTKADYESHNLYTCEVVHKTSSSPVVKSFNRNEC
notes: Parental rat hybridoma, rat IgG2a
As to B2, the EC50 in assay [1] worked out at 6200 pM.

B3: PI-3010-AB (antibody, human IgG1, kappa)
heavy: not shown
light: DIQMTQSPASLSTSLGETVSIECLASEGISNDLAWYQQKSGKSPQLLIYAASRLQDGVPSRFSGSGSGTRYSLKISGMQPEDEADYFCQQSYKYPLTFGSGTKLEIKRTVAAPSVFIFPPSDEQLKSGTASVVCLLNNFYPREAKVQWKVDNALQSGNSQESVTEQDSKDSTYSLSSTLTLSKADYEKHKVYACEVTHQGLSSPVTKSFNRGEC
On to B3, for which the Kd in assay [2] is 430 pM; in assay [3], 259 pM.

B4: PI-HX-3021 (antibody, V domains shown)
VH: QVRLVQSGTALVRPGASVRMSCTASGYSFTDYWVSWVKQSHGQSLEWIGEIYPNSGTTNFNEKFEGKATLTVDKSTSTAYMELSRLTSEDSAIYYCTGEGTFDYWGQGVMVTVSS
VL: EIVLTQSPTTMAASPGEKVTITCRPSSSLSNMHWFQQKSGTSPKPWIYDTSKLASGVPDRFSGSGSGTSYSLTISSMEAEDAATYYCLQRSSYPPTFGAGTKLELK
notes: Rat IgG2a hybridoma antibody; Not the effector dead PI-3021; also called PI-3007 (name of the recombinant form)
For B4, the half-maximal effective concentration (EC50) in assay [4] was 250 pM.

B5: PI-HX-3016 (antibody, rat IgG1, V domains shown)
VH: EVQLVESGGGLVKPGASLKLSCVASGFTFSDDWMNWVRQTPGKAMEWIGDIKYDGSYTNYVPSLKNRLTISRDNAKNTLYLQMTNVRSEDTATYYCTSGGVFDYWGQGVMVTVSS
VL: EIVLSQSPTTMAASPGEKVTITCRASSSVSYMHWFQQKSGTSPKPWIYDTSKLASGVPDRFSGSGSGTSYSLTISSMEAEDAATYYCLQRSGYPPTFGAGTKLEVK
notes: Rat IgG1 hybridoma antibody
Turning to B5, the EC50 in assay [4] stood at 340 pM.

B6: PI-3015-AB (antibody, human IgG1, kappa)
heavy: not shown
light: DIQMTQSPSSLSASVGDRVTITCRASEGISNDLAWYQQKPGKAPKLLIYAASRLQSGVPSRFSGSGSGTDYTLTISSMQPEDFATYYCQQSYKYPLTFGQGTKLEIKRTVAAPSVFIFPPSDEQLKSGTASVVCLLNNFYPREAKVQWKVDNALQSGNSQESVTEQDSKDSTYSLSSTLTLSKADYEKHKVYACEVTHQGLSSPVTKSFNRGEC
Consider B6, for which the dissociation constant (Kd) in assay [2] is 911 pM; in assay [3], 611 pM.

Values taken from patent publication US20220153832A1 (PIONYR IMMUNOTHERAPEUTICS, published 2022).
